Measured values from paper PMC6887548.

Biological target: MCM helicase hexamer (Mcm2-7) (yeast) (UniProt P29469)
Experiment: negative-stain EM

decrease of MO formation against wild type ORC: 50%
Substance: ORC variant lacking the N-terminal 119 amino acids of Orc6, P54784;P32833;P54790;P54791;P50874;P38826
